From PMC10803776 (2024)

Biological target: Mycobacterium tuberculosis DnaK, wild type, full length (Mycobacterium tuberculosis, UniProt P9WMJ9 1-625)
Experiment: ITC

B1: Mycobacterium tuberculosis GrpE, wild type, full length (natural protein)
chain: MTDGNQKPDGNSGEQVTVTDKRRIDPETGEVRHVPPGDMPGGTAAADAAHTEDKVAELTADLQRVQADFANYRKRALRDQQAAADRAKASVVSQLLGVLDDLERARKHGDLESGPLKSVADKLDSALTGLGLVAFGAEGEDFDPVLHEAVQHEGDGGQGSKPVIGTVMRQGYQLGEQVLRHALVGVVDTVVVDAAELESVDDGTAVADTAENDQADQGNSADTSGEQAESEPSGS
Kd: 360 nM
